The labels stand for the following.
B1: TPP-1017: CD137A-6GS-PD138G7(G109D)-6GS-HSA2-His (bispecific antibody)
chain: EVQLVESGGGLVQPGGSLRLSCAASGFTLSNYWMNWVRQAPGKGLEWVANINQDGSERYYVDSVKGRFTISRDNAKNSLYLQMNSLRAEDTAVYYCARGGEGYGVDHYGLDVSGQGTTVTVSSGGGGSGGGGSGGGGSGGGGSGGGGSGGGGSEVQLVESGGGVVRPGGSLRLSCAASGFTFDDYAMSWVRQAPGKGLEWVSGITWNGGSTGYADSVKDRFTISRDNAKNSLYLQMNSLRAEDTALYYCVRDKYSYAWSYDDFDIWGQGTMVTVSSGGGGSGGGGSGGGGSGGGGSGGGGSGGGGSEVQLVESGGGLVKPGGSLRLSCAASGFTFSNYNMNWVRQAPGKGLEWVSSISSAGTHIYYADSVKGRFTISRDNAKNSLYLQMNSLRAEDTAVYYCARDPHSTGWYKDFDYWGQGTLVTVSSAAAHHHHHH
B2: TPP-942: PDA-6GS-172E1-13-6GS-HSA2-2-His (bispecific antibody)
chain: EVQLVESGGGLVQPGRSLRLSCAASGFTFDDYALHWVRQAPGKDLEWVSGISWNGGSYGYADSVKGRFTISRDNAKNSLYLQMNSLRAEDTALYYCVREKGPGLTGSTADYYGLDAWGQGTMVTVSSGGGGSGGGGSGGGGSGGGGSGGGGSGGGGSEVQLVESGGGVVQPGGSLRLSCAASGFTFSNYGMHWVRQAPGKGLEWVAVISNDGNTKTYADSVKGRFTISRDNSKNTLYLQMNSLRAEDTAVYYCAQDETTTVTASYYFDYWGQGTLVTVSSGGGGSGGGGSGGGGSGGGGSGGGGSGGGGSEVQLVESGGGLVKPGGSLRLSCAASGFTFSNYNMNWVRQAPGKGLEWVSSISSAGTHIYYADSVKGRFTISRDNAKNSLYLQMNSLRAEDTAVYYCARDPHSTGWYKDFDYWGQGTLVTVSSAAAHHHHHH
B3: TPP-1025: CD137A-6GS-HSA3-2-6GS-PDA2-His (bispecific antibody)
chain: EVQLVESGGGLVQPGGSLRLSCAASGFTLSNYWMNWVRQAPGKGLEWVANINQDGSERYYVDSVKGRFTISRDNAKNSLYLQMNSLRAEDTAVYYCARGGEGYGVDHYGLDVSGQGTTVTVSSGGGGSGGGGSGGGGSGGGGSGGGGSGGGGSEVQLLESGGGLVKPGGSLRLSCAASGFTVSSYTMNWVRQAPGKGLEWVSSISSSGRYIYYADSVKGRFTISRDNAKNSLYLQMNSLRAEDTAVYYCARDPRMVGNPHEFDIWGQGTMVTVSSGGGGSGGGGSGGGGSGGGGSGGGGSGGGGSEVQLVESGGGVVRPGGSLRLSCAASGFTFDDYAMSWVRQAPGKGLEWVSGITWNAGSTGYADSVKGRFTISRDNAKNSLYLQMNSLRAEDTALYYCVRDKYSYAWSYDDFDIWGQGTMVTVSSAAAHHHHHH
B4: TPP-1016: CD137A-6GS-PDA2-6GS-HSA1-His (bispecific antibody)
chain: EVQLVESGGGLVQPGGSLRLSCAASGFTLSNYWMNWVRQAPGKGLEWVANINQDGSERYYVDSVKGRFTISRDNAKNSLYLQMNSLRAEDTAVYYCARGGEGYGVDHYGLDVSGQGTTVTVSSGGGGSGGGGSGGGGSGGGGSGGGGSGGGGSEVQLVESGGGVVRPGGSLRLSCAASGFTFDDYAMSWVRQAPGKGLEWVSGITWNAGSTGYADSVKGRFTISRDNAKNSLYLQMNSLRAEDTALYYCVRDKYSYAWSYDDFDIWGQGTMVTVSSGGGGSGGGGSGGGGSGGGGSGGGGSGGGGSEVQLVESGGGLVQPGRSLRLSCAASGFTFHHYAMHWVRQAPGKGLEWVSGISWNGNKITYADSVKGRFTISRDNAKNSLYLQMNSLRAEDTALYYCVRDSSLFIVGAPTFEHWGRGTLVTVSSAAAHHHHHH
B5: TPP-943: PDA-6GS-172E1-13-6GS-HSA2-His (bispecific antibody)
chain: EVQLVESGGGLVQPGRSLRLSCAASGFTFDDYALHWVRQAPGKDLEWVSGISWNGGSYGYADSVKGRFTISRDNAKNSLYLQMNSLRAEDTALYYCVREKGPGLTGSTADYYGLDAWGQGTMVTVSSGGGGSGGGGSGGGGSGGGGSGGGGSGGGGSEVQLVESGGGVVQPGGSLRLSCAASGFTFSNYGMHWVRQAPGKGLEWVAVISNDGNTKTYADSVKGRFTISRDNSKNTLYLQMNSLRAEDTAVYYCAQDETTTVTASYYFDYWGQGTLVTVSSGGGGSGGGGSGGGGSGGGGSGGGGSGGGGSEVQLLESGGGLVKPGGSLRLSCAASGFTVSSYTMNWVRQAPGKGLEWVSSISSSGRYIYYADSVKGRFTISRDNAKNSLYLQMNSLRAEDTAVYYCARDPRMVGNPHEFDIWGQGTMVTVSSAAAHHHHHH
B6: TPP-1291 PD138G7(G109D)-6GS-CD137A-6GS-HSA1943 (bispecific antibody)
chain: EVQLVESGGGVVRPGGSLRLSCAASGFTFDDYAMSWVRQAPGKGLEWVSGITWNGGSTGYADSVKDRFTISRDNAKNSLYLQMNSLRAEDTALYYCVRDKYSYAWSYDDFDIWGQGTMVTVSSGGGGSGGGGSGGGGSGGGGSGGGGSGGGGSEVQLVESGGGLVQPGGSLRLSCASGFTLSNYWMNWVRQAPGKGLEWVANINQDGSERYYVDSVKGRFTISRDNAKNSLYLQMNSLRAEDTAVYYCARGGEGYGVDHYGLDVSGQGTTVTVSSGGGGSGGGGSGGGGSGGGGSGGGGSGGGGSEVQLLESGGGLVKPGGSLRLSCAASGFTVSSYTMNWVRQAPGKGLEWVSSISSSGRYIYYADSVKGRFTISRDNAKNSLYLQMNSLRAEDTAVYYCARDPRMVGNPHEFDIWGQGTMVTVSS
B7: TPP-1052: PDA2-6GS-HSA3-6GS-CD137D-His (bispecific antibody)
chain: EVQLVESGGGVVRPGGSLRLSCAASGFTFDDYAMSWVRQAPGKGLEWVSGITWNAGSTGYADSVKGRFTISRDNAKNSLYLQMNSLRAEDTALYYCVRDKYSYAWSYDDFDIWGQGTMVTVSSGGGGSGGGGSGGGGSGGGGSGGGGSGGGGSEVQLLESGGGLVKPGGSLRLSCAASGFTVSSYTMNWVRQAPGKGLEWVSSISSSGRYIYYADSVKGRFTISRDNAKNSLYLQMNSLRAEDTAVYYCARDPRMVGNPHEFDIWGQGTMVTVSSGGGGSGGGGSGGGGSGGGGSGGGGSGGGGSEVQLVESGGGVVQPGGSLRLSCAASGFTFSNYGMHWVRQAPGKGLEWVAVISNDGNTKTYADSVKGRFTISRDNSKNTLYLQMNSLRAEDTAVYYCAQDETTTVTASYYFDYWGQGTLVTVSSAAAHHHHHH
B8: TPP-1023: CD137A-6GS-HSA3-6GS-PDA-His (bispecific antibody)
chain: EVQLVESGGGLVQPGGSLRLSCAASGFTLSNYWMNWVRQAPGKGLEWVANINQDGSERYYVDSVKGRFTISRDNAKNSLYLQMNSLRAEDTAVYYCARGGEGYGVDHYGLDVSGQGTTVTVSSGGGGSGGGGSGGGGSGGGGSGGGGSGGGGSEVQLLESGGGLVKPGGSLRLSCAASGFTVSSYTMNWVRQAPGKGLEWVSSISSSGRYIYYADSVKGRFTISRDNAKNSLYLQMNSLRAEDTAVYYCARDPRMVGNPHEFDIWGQGTMVTVSSGGGGSGGGGSGGGGSGGGGSGGGGSGGGGSEVQLVESGGGLVQPGRSLRLSCAASGFTFDDYALHWVRQAPGKDLEWVSGISWNGGSYGYADSVKGRFTISRDNAKNSLYLQMNSLRAEDTALYYCVREKGPGLTGSTADYYGLDAWGQGTMVTVSSAAAHHHHHH
B9: TPP-1014: CD137A-6GS-PDA-6GS-HSA-His (bispecific antibody)
chain: EVQLVESGGGLVQPGGSLRLSCAASGFTLSNYWMNWVRQAPGKGLEWVANINQDGSERYYVDSVKGRFTISRDNAKNSLYLQMNSLRAEDTAVYYCARGGEGYGVDHYGLDVSGQGTTVTVSSGGGGSGGGGSGGGGSGGGGSGGGGSGGGGSEVQLVESGGGLVQPGRSLRLSCAASGFTFDDYALHWVRQAPGKDLEWVSGISWNGGSYGYADSVKGRFTISRDNAKNSLYLQMNSLRAEDTALYYCVREKGPGLTGSTADYYGLDAWGQGTMVTVSSGGGGSGGGGSGGGGSGGGGSGGGGSGGGGSEVQLVESGGGLVQPGRSLRLSCAASGFTFHHYAMHWVRQAPGKGLEWVSGISWNGNKITYADSVKGRFTISRDNAKNSLYLQMNSLRAEDTALYYCVRDSSLFIVGAPTFEHWGRGTLVTVSSAAAHHHHHH
B10: TPP-1294 PDBlocker1.92-6GS-CD137A-7-6GS-HSA3 (bispecific antibody)
chain: EVQLVESGGGLVKPGGSLRLSCAASGFTFSDESMTWMRQAPGKGLEWVSYISSGGGVKFYADSVKGRFTISRDNAKNSLYLQMNSLRAEDTAVYYCAREAPLRLGESPHDAFDISGQGTMVTVSSGGGGSGGGGSGGGGSGGGGSGGGGSGGGGSEVQLVESGGGLVQPGGSLRLSCAASGFTLSNYWMNWVRQAPGKGLEWVANINQDGSERYYVDSVKGRFTISRDNAKNSLYLQMNSLRAEDTAVYYCARGGEGYGVDHYGLDVSGQGTTVTVSSGGGGSGGGGSGGGGSGGGGSGGGGSGGGGSEVQLLESGGGLVKPGGSLRLSCAASGFTVSSYTMNWVRQAPGKGLEWVSSISSSGRYIYYADSVKGRFTISRDNAKNSLYLQMNSLRAEDTAVYYCARDPRMVGNPHEFDIWGQGTMVTVSS
B11: TPP-1015: CD137A-6GS-PDA2-6GS-HSA3-His (bispecific antibody)
chain: EVQLVESGGGLVQPGGSLRLSCAASGFTLSNYWMNWVRQAPGKGLEWVANINQDGSERYYVDSVKGRFTISRDNAKNSLYLQMNSLRAEDTAVYYCARGGEGYGVDHYGLDVSGQGTTVTVSSGGGGSGGGGSGGGGSGGGGSGGGGSGGGGSEVQLVESGGGVVRPGGSLRLSCAASGFTFDDYAMSWVRQAPGKGLEWVSGITWNAGSTGYADSVKGRFTISRDNAKNSLYLQMNSLRAEDTALYYCVRDKYSYAWSYDDFDIWGQGTMVTVSSGGGGSGGGGSGGGGSGGGGSGGGGSGGGGSEVQLLESGGGLVKPGGSLRLSCAASGFTVSSYTMNWVRQAPGKGLEWVSSISSSGRYIYYADSVKGRFTISRDNAKNSLYLQMNSLRAEDTAVYYCARDPRMVGNPHEFDIWGQGTMVTVSSAAAHHHHHH
B12: TPP-1018: CD137A-6GS-PD138G7(G109D)-6GS-HSA3-His (bispecific antibody)
chain: EVQLVESGGGLVQPGGSLRLSCAASGFTLSNYWMNWVRQAPGKGLEWVANINQDGSERYYVDSVKGRFTISRDNAKNSLYLQMNSLRAEDTAVYYCARGGEGYGVDHYGLDVSGQGTTVTVSSGGGGSGGGGSGGGGSGGGGSGGGGSGGGGSEVQLVESGGGVVRPGGSLRLSCAASGFTFDDYAMSWVRQAPGKGLEWVSGITWNGGSTGYADSVKDRFTISRDNAKNSLYLQMNSLRAEDTALYYCVRDKYSYAWSYDDFDIWGQGTMVTVSSGGGGSGGGGSGGGGSGGGGSGGGGSGGGGSEVQLLESGGGLVKPGGSLRLSCAASGFTVSSYTMNWVRQAPGKGLEWVSSISSSGRYIYYADSVKGRFTISRDNAKNSLYLQMNSLRAEDTAVYYCARDPRMVGNPHEFDIWGQGTMVTVSSAAAHHHHHH

The text below walks through data of patent publication US20220220215A1 (CRESCENDO BIOLOGICS, published 2022).

The assay deals with human CD137 expressed on cells (Jurkat human CD137 NF-kB luciferase reporter cells; human CD8+ T cells) (human, UniProt Q07011 24-255). Kind of assay: cell-based or functional assay.
B1: the “Jurkat-CD137/CHO-PD-1 Reporter Assay EC50” value was determined as 0.21 nM.
In the case of B2 it was 57.4 nM; in that of B3, 0.509 nM; in that of B4, 0.698 nM.
As for B5, the “Jurkat-CD137/CHO-PD-1 Reporter Assay EC50” value came out at 25.7 nM.
In the case of B6, the “Jurkat-CD137/CHO-PD-1 Reporter Assay EC50” value amounted to 0.0809 nM.
As for B7, the “Jurkat-CD137/CHO-PD-1 Reporter Assay EC50” value turned out to be 3.26 nM.
In the case of B8, the “Jurkat-CD137/CHO-PD-1 Reporter Assay EC50” value was 0.437 nM.
Then B9, with 0.548 nM.
Regarding B10, the “Jurkat-CD137/CHO-PD-1 Reporter Assay EC50” value stood at 0.0323 nM.
Consider B11, for which the “Jurkat-CD137/CHO-PD-1 Reporter Assay EC50” value amounted to 0.507 nM.
On to B12, for which the “Jurkat-CD137/CHO-PD-1 Reporter Assay EC50” value came to 0.273 nM.
